From US20070244048A1 (published 2007)
Starred links: 1 amine or outer side, 2 acyl side, 3 side chain; linkers in the order of their positions; H or OH if unused. Non-standard residues stand in square brackets, D forms with d. *: point of attachment. Ttds = 1-amino-4,7,10-trioxa-13-tridecanamine succinimic acid spacer, O=C(CCC(=O)[*:2])NCCCOCCOCCOCCCN[*:1]; (PEG)2 40 kDa = branched PEG of 40 kDa linked via the Cys side-chain thiol (code C2 = Cys(PEG)2 40 kDa); Succinimide(1-Et,3-yl) = CCN1C(=O)CC(*)C1=O

What was measured:
Assay in all cases: cell-based or functional assay
mouse NMUR2 = mouse NMUR2 (mouse, UniProt Q8BZ39 1-395)
Sequence of mouse NMUR2 (Q8BZ39 whole entry): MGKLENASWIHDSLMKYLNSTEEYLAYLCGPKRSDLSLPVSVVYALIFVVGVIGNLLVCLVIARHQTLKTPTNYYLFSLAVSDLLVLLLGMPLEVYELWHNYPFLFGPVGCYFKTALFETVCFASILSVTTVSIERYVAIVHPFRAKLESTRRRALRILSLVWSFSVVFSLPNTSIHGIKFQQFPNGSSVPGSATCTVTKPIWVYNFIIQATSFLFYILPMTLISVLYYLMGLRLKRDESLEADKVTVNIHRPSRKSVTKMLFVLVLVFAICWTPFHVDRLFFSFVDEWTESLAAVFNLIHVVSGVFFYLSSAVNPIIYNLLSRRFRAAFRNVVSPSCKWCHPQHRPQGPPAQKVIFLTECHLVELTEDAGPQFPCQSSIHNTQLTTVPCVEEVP

mouse NMUR1-ATG = molecular target: T1, mouse NMUR1-ATG (mouse, UniProt O55040 1-428)
T1 sequence (looked up): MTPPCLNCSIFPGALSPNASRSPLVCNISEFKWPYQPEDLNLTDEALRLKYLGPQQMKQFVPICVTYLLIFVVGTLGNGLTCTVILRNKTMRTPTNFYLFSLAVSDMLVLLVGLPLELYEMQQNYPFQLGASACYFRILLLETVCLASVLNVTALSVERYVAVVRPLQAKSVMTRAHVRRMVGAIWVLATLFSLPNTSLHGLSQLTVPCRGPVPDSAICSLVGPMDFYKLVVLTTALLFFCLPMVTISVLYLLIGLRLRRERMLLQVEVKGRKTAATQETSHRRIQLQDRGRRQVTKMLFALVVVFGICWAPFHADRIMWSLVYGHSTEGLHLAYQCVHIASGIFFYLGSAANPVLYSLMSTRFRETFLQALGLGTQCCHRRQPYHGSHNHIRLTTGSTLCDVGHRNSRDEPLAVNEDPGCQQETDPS

mouse NMUR1-CTG = molecular target: T2, mouse NMUR1-CTG (mouse, UniProt O55040 1-428)
T2 sequence (looked up): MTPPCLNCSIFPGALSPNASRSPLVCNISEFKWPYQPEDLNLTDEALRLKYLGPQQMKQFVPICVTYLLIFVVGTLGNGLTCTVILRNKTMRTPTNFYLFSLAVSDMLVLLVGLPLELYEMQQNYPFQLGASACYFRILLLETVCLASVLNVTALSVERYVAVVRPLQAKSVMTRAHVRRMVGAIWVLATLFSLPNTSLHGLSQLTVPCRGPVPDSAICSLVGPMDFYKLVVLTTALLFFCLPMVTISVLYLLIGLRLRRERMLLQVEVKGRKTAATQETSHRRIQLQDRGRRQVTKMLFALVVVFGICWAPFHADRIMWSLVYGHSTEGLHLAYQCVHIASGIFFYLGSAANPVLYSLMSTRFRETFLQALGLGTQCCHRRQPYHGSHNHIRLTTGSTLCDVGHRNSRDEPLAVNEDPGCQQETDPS

rat NMUR1-TTG = molecular target: T3, rat NMUR1-TTG (rat, UniProt Q9JJI5 1-425)
T3 sequence (looked up): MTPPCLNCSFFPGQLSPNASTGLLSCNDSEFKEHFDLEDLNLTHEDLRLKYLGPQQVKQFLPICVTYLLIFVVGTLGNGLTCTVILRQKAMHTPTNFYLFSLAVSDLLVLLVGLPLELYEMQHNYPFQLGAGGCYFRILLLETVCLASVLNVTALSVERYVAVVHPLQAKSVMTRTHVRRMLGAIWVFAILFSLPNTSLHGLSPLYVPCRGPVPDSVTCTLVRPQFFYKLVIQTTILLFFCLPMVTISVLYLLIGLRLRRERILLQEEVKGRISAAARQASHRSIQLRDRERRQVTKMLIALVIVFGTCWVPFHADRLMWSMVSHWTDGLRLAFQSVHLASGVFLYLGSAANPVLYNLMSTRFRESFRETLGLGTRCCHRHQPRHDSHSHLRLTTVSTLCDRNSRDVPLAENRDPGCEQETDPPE

rat NMUR1-ATG = molecular target: T4, rat NMUR1-ATG (rat, UniProt Q9JJI5 1-425)
T4 sequence (looked up): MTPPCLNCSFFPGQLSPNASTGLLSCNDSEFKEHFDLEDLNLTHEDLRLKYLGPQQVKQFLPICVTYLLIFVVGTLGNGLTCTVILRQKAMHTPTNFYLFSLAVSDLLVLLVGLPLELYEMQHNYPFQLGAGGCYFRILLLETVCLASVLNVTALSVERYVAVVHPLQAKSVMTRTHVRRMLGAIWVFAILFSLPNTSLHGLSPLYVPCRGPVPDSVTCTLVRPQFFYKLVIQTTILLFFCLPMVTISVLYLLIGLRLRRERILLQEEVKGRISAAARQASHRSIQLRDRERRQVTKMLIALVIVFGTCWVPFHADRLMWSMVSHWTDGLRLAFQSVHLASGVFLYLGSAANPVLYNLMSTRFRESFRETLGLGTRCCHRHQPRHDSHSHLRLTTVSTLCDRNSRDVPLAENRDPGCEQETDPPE

rat NMUR2 = rat NMUR2 (rat, UniProt Q9ESQ4 1-395)
Sequence of rat NMUR2 (Q9ESQ4 whole entry): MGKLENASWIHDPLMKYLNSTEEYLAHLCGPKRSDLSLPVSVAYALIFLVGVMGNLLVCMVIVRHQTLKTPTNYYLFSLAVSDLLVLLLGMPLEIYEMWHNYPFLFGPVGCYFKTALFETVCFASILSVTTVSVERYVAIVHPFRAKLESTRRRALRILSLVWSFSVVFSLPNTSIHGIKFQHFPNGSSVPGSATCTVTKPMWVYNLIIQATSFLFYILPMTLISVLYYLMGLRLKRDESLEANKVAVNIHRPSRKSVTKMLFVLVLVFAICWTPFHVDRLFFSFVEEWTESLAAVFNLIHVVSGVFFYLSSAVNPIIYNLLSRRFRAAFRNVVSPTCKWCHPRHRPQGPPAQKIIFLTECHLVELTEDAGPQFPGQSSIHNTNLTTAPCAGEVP

human NMUR2 = human NMUR2 (human, UniProt Q9GZQ4 1-415)
Sequence of human NMUR2 (Q9GZQ4 whole entry): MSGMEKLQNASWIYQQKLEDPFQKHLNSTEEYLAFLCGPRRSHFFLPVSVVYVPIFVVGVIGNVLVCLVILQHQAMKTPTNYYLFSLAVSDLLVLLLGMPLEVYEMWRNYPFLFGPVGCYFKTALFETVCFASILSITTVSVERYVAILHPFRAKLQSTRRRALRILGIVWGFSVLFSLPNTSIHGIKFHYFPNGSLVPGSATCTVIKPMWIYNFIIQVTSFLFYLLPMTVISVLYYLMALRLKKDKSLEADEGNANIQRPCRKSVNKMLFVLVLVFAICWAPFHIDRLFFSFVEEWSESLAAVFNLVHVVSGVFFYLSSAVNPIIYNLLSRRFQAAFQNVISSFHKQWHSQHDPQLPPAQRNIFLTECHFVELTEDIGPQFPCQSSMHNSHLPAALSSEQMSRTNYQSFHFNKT

human NMUR1 = molecular target: T5, human NMUR1 (human, UniProt Q9HB89 1-426)
T5 sequence (looked up): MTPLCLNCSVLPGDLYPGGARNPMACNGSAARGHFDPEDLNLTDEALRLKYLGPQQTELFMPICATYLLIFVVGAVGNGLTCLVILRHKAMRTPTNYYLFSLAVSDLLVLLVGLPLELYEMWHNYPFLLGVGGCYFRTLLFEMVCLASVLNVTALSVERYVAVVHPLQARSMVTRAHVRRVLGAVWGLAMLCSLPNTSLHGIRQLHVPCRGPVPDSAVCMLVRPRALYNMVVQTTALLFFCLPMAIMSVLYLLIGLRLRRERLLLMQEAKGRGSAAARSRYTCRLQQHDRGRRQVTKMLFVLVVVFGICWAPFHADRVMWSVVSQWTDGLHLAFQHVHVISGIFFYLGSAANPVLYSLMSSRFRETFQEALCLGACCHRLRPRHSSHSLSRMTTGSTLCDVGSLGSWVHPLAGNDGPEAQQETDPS

| Binder | % Activity (FLIPR) (mouse NMUR2) | EC50 (FLIPR) (mouse NMUR2) | % Activity (FLIPR) (mouse NMUR1-ATG) | EC50 (FLIPR) (mouse NMUR1-ATG) | % Activity (FLIPR) (mouse NMUR1-CTG) | EC50 (FLIPR) (mouse NMUR1-CTG) | % Activity (FLIPR) (rat NMUR1-TTG) | EC50 (FLIPR) (rat NMUR1-TTG) | % Activity (FLIPR) (rat NMUR1-ATG) | EC50 (FLIPR) (rat NMUR1-ATG) | % Activity (FLIPR) (rat NMUR2) | EC50 (FLIPR) (rat NMUR2) | % Activity (FLIPR) (human NMUR2) | EC50 (FLIPR) (human NMUR2) | % Activity (FLIPR) (human NMUR1) | EC50 (FLIPR) (human NMUR1) |
| --- | --- | --- | --- | --- | --- | --- | --- | --- | --- | --- | --- | --- | --- | --- | --- | --- |
| Ac-C(Succinimide(1-Et,3-yl))FQSPFASQSRGYFLFRPRN-NH2 (SMILES CCN1C(=O)CC(SC[C@H](NC(C)=O)C(=O)N[C@@H](Cc2ccccc2)C(=O)N[C@@H](CCC(N)=O)C(=O)N[C@@H](CO)C(=O)N2CCC[C@H]2C(=O)N[C@@H](Cc2ccccc2)C(=O)N[C@@H](C)C(=O)N[C@@H](CO)C(=O)N[C@@H](CCC(N)=O)C(=O)N[C@@H](CO)C(=O)N[C@@H](CCCNC(=N)N)C(=O)NCC(=O)N[C@@H](Cc2ccc(O)cc2)C(=O)N[C@@H](Cc2ccccc2)C(=O)N[C@@H](CC(C)C)C(=O)N[C@@H](Cc2ccccc2)C(=O)N[C@@H](CCCNC(=N)N)C(=O)N2CCC[C@H]2C(=O)N[C@@H](CCCNC(=N)N)C(=O)N[C@@H](CC(N)=O)C(N)=O)C1=O) [NMU19] | 100% | 5.6 nM | 100% | 7.9 nM | 111% | 22.5 nM | 100% | 12.8 nM | 100% | 6.8 nM | 100% | 8.7 nM | 105% | 11.5 nM | 95.9% | 38.9 nM |
| Ac-C(Succinimide(1-Et,3-yl))C(Succinimide(1-Et,3-yl))FRVDEEFQSPFASQSRGYFLFRPRN-NH2 [NMU22] | 100% | 6.9 nM | 100% | 6.2 nM | 100% | 43.5 nM | 96.4% | 39.1 nM | 100% | 14 nM | 98.8% | 17.1 nM | 105% | 6.5 nM | 95.6% | 10.2 nM |
| Ac-C(Succinimide(1-Et,3-yl))[Ttds]FLFRPRN-NH2 (SMILES CCN1C(=O)CC(SC[C@H](NC(C)=O)C(=O)NCCCOCCOCCOCCCNC(=O)CCC(=O)N[C@@H](Cc2ccccc2)C(=O)N[C@@H](CC(C)C)C(=O)N[C@@H](Cc2ccccc2)C(=O)N[C@@H](CCCNC(=N)N)C(=O)N2CCC[C@H]2C(=O)N[C@@H](CCCNC(=N)N)C(=O)N[C@@H](CC(N)=O)C(N)=O)C1=O) [NMU15] | 100% | 0.6 nM | 100% | 1.5 nM | 100% | 4 nM | 108% | 24.6 nM | 100% | 4.2 nM | 100% | 2.2 nM | 101% | 4.2 nM | 91.5% | 7.7 nM |
| Ac-C((PEG)2 40 kDa)FQSPFASQSRGYFLFRPRN-NH2 [NMU20] | 100% | 14.8 nM | 100% | 12.7 nM | 65.4% | 480 nM | 93.8% | 24.4 nM | 100% | 7.2 nM | 100% | 16.9 nM | 100% | 13 nM | 100% | 16.4 nM |
| Ac-C(Succinimide(1-Et,3-yl))ASQSRGYFLFRPRN-NH2 (SMILES CCN1C(=O)CC(SC[C@H](NC(C)=O)C(=O)N[C@@H](C)C(=O)N[C@@H](CO)C(=O)N[C@@H](CCC(N)=O)C(=O)N[C@@H](CO)C(=O)N[C@@H](CCCNC(=N)N)C(=O)NCC(=O)N[C@@H](Cc2ccc(O)cc2)C(=O)N[C@@H](Cc2ccccc2)C(=O)N[C@@H](CC(C)C)C(=O)N[C@@H](Cc2ccccc2)C(=O)N[C@@H](CCCNC(=N)N)C(=O)N2CCC[C@H]2C(=O)N[C@@H](CCCNC(=N)N)C(=O)N[C@@H](CC(N)=O)C(N)=O)C1=O) [NMU17] | 100% | 0.5 nM | 100% | 1.2 nM | 117% | 2.9 nM | 105% | 4.9 nM | 100% | 0.9 nM | 100% | 1.2 nM | 99.8% | 1.5 nM | 100% | 5 nM |
| Ac-C(PEG 20 kDa)FRVDEEFQSPFASQSRGYFLFRPRN-NH2 [NMU21] | 100% | 1.6 nM | 100% | 9.1 nM | 90.8% | 56.3 nM | 77.5% | 220 nM | 99.9% | 19.5 nM | 99.2% | 7 nM | 97.9% | 24.2 nM | 93.2% | 14.5 nM |
| Ac-C(PEG 20 kDa)C(PEG 20 kDa)FRVDEEFQSPFASQSRGYFLFRPRN-NH2 [NMU23] | 100% | 21.3 nM | 100% | 14 nM | 50.9% | 770 nM | 39.8% | 1000 nM | 76.4% | 127 nM | 90.2% | 47.4 nM | 71.7% | 1000 nM | 66.9% | 300 nM |
| Ac-C((PEG)2 40 kDa)[Ttds]FLFRPRN-NH2 [NMU16] | 97.4% | 138 nM | 100% | 24.1 nM | 57.2% | 651 nM | 34.6% | 1000 nM | 75.4% | 418 nM | 86.9% | 315 nM | 75% | 1000 nM | 74% | 1000 nM |
| Ac-C((PEG)2 40 kDa)ASQSRGYFLFRPRN-NH2 [NMU18] | 100% | 50.2 nM | 100% | 15.2 nM | 57.7% | 693 nM | 90.7% | 105 nM | 95.9% | 28.6 nM | 96.7% | 63 nM | 101% | 65.7 nM | 97.1% | 68.1 nM |
